Here are results for four variants from FireProtDB (doi:10.1002/pro.5560041207).

The chains are these.
B1: Thioredoxin, P08058 (parent)
chain: MSTVPVTDATFDTEVRKSDVPVVVDFWAEWCGPCRQIGPALEELSKEYAGKVKIVKVNVDENPESPAMLGVRGIPALFLFKNGQVVSNKVGAAPKAALATWIASAL

The variants in this data set derive from B1. The following applies: Cereibacter sphaeroides, pH 7.4, 23 °C, Urea, Fluorescence, whole UniProt chain shown.

For F26L, under “Potassium phosphate 20 mM”, the “ddG of mutation (higher = less stable)” value amounted to 3.4 kcal/mol. Moreover, the unfolding free energy is, setting by setting: (Potassium phosphate 20 mM) 4.8 kcal/mol; (Potassium phosphate 20mM) 4.78 kcal/mol.
For F26V, in that order: 4.8 kcal/mol, 3.4 kcal/mol and 3.35 kcal/mol.
Regarding F26Y, the unfolding free energy (Potassium phosphate 20mM) is 7.89 kcal/mol.
The same measure, in the same setting: then F26I, with 4.3 kcal/mol.
